Several values for one entry are separate records, joined by “and”; a condition that tells them apart may be missing. Equal entries are not always repeated.
Conditions: Escherichia coli (strain K12), pH 7.4, Thermal, DSC, sodium phosphate 10 mM, transition: 3, reversible: yes, whole UniProt chain shown

B1: DNA-binding protein HU-alpha wild type, P0ACF0 (protein)
chain: MNKTQLIDVIAEKAELSKTQAKAALESTLAAITESLKEGDAVQLVGFGTFKVNHRAERTGRNPQTGKEIKIAAANVPAFVSGKALKDAVK
heat capacity change of unfolding (NaCl 1 M): 0.55 kcal/mol/K and 0.9 kcal/mol/K | unfolding enthalpy (calorimetric) (NaCl 1 M): 49.7 kcal/mol and 39.3 kcal/mol and 33.7 kcal/mol | Tm (NaCl 1M): 69 °C | heat capacity change of unfolding (NaCl 1M): 0.55 kcal/mol/K | unfolding enthalpy (calorimetric) (NaCl 1M): 42.8 kcal/mol
